The subject of one assay is HUVEC. The assay is described as follows: HUVEC invasion (BioCoat Angiogenesis system). As to conditions: HUVEC treated with Gal1. The format is cell-based, human. As for the experimental part: HUVEC transfected or not with specific siRNA or pre-incubated with signaling pathway inhibitors were exposed to VEGF or Gal1 with or without lactose, sucrose, 8F4F8G7 mAb or control isotype (IgG1κ) or specific antibodies for VEGFR1 (AP-MAB0702; Abcam), VEGFR2 (AF357; R&D), VEGFR3 (AB89501; Abcam) or VEGF (MAB293; R&D). Cells were processed for proliferation, migration, invasion and tube formation assays. Tumor-associated blood vessels were identified by flow cytometry using Alexa Fluor 647-conjugated anti-CD34 antibody (RAM34; eBioscience).
Invasion assays were performed using the BioCoat Angiogenesis system (BD Biosciences) following manufacturer's recommendations. For assessment of in vivo angiogenesis, growth factor-reduced Matrigel (BD Biosciences) was mixed with Gal1 (0.1 or 3 μM) with or without lactose (30 mM). In another set of experiments, serum-free CM from KS cells infected or not with a retroviral vector expressing Gal1 shRNA and cultured under hypoxic or normoxic conditions, were added to unpolymerized Matrigel and injected subcutaneously into the flanks of either wild-type or Lgals1^−/− (B6) mice or nude mice using a cold syringe. Matrigel embedded with buffer alone was used as negative control and a cocktail containing VEGF (50 ng/ml), heparin (50 U/ml) and TNF (2 ng/ml) was used as positive control. […]

In a further assay the target is T1, VEGFR2 (Homo sapiens, UniProt P35968).
T1 construct: co-immunoprecipitation results followed by immunoblot analysis of HUVEC lysates; endogenous in cells; host or cells: primary HUVEC
In words: Co-immunoprecipitation of Gal1 with VEGFR2 in HUVEC lysates. The format is binding. The conditions noted are these: lysates of human ECs treated with Gal1. The protocol: Array (Cell Signaling) following manufacturer's directions. For co-immunoprecipitation, 500 μg cell lysates were incubated with 2 μg of anti-VEGFR2 (55B11; Cell Signaling) or anti-NRP-1 (C-19; Santa Cruz Biotechnol) antibodies. The immunocomplexes were captured with protein G PLUS-Agarose (Santa Cruz Biotechnol) and processed for immunoblot analysis as described in Ilarregui et al. (2009) Nat Immunol 10, 981-991. Equal amounts of protein were resolved by SDS-PAGE, blotted onto nitrocellulose membranes (GE Healthcare) and probed with anti-IκB-α (C21), anti-Erk1/2 (C14), anti-phospho-Erk1/2 (E4) or anti-actin (I-19) (all from Santa Cruz Biotechnol) or anti-Akt (9272), anti-phospho-Akt (9271S), anti-VEGFR2 (55B11), anti-phospho-VEGFR2 (19A10) (all from Cell Signaling) or anti-HIF-1α (mgc3; ABR BioReagent) antibodies or a rabbit anti-Gal1 IgG (1.5 μg/ml) obtained as described in Ilarregui et al. (2009) Nat Immunol 10, 981-991.

Another assay addresses T2, human galectin-1 (Gal1) (human, UniProt P09382 2-135).
T2 construct: Used as recombinant protein (rGal1); also called hGal1; rGal1
In words: immunoblot of L428 cell lysate. A general note: Immunoblotting shows a protein as a band on a membrane.

For another assay, the target named is T3, endogenous Gal1 (Homo sapiens, UniProt P09382).
T3 construct: endogenous Gal1 from HL cell lines; endogenous in cells; host or cells: Hodgkin lymphoma cell line (L428)
The assay is described as follows: Reactivity with endogenous Gal1 from Hodgkin lymphoma cell line (immunoblot). The format is binding. The conditions noted are these: Hodgkin lymphoma cell line (L428); immunoblots. An excerpt: Anti-human Gal1 mAbs were obtained by immunizing B6-Cg-Tg (BCL2)22Wehi-J mice (Jackson Labs, Bar Harbor, Me.) with recombinant human glutathione-s-transferase (GST)-Gal1, generating anti-Gal1 hybridomas with standard methods and purifying the Gal1 monoclonal antibody and class-matched IgG2bλ, control by affinity chromatography. […] A previously described anti-Gal1 polyclonal antibody (Juszczynski et al. (2007) Proc Natl Acad Sci USA 104:13134-9) was used as a positive control in all assays.
Expression of Gal1 protein in HL, LCL and DLBCL cell lines was determined by Western blot (WB) using the αGal1 monoclonal antibody (8F4F8G7) or the previously described polyclonal antiserum (Juszczynski et al. (2007) Proc Natl Acad Sci USA 104:13134-9). Knock-down of LMP2A was confirmed by WB using anαLMP2a antibody (Abcam, Cambridge, Mass.). Activity of the AP-1 components, cJun and JunB, in the HL cell line L428 and the LCLs RIC and NOR were interrogated by WB using αphospho(Ser63)-cJun (Cell Signaling Technology), αcJun (Cell Signaling Technology, Danvers, Mass.), αphospho(Ser259)-JunB (Santa Cruz Biotechnology, Inc. Santa Cruz, Calif.) and αJunB (Cell Signaling Technology). WBs were normalized using αβ-actin antibody (Sigma Aldrich, St. Louis, Mo.) to determine β-actin expression as a loading control.

Data on 2 molecules can be found in US10456465B2, “Compositions, kits, and methods for the diagnosis prognosis, monitoring, treatment and modulation of post-transplant lymphoproliferative disorders and hypoxia associated angiogenesis disorders using galectin-1” (Dana-Farber Cancer Institute, Inc., priority 2009, dated 2019).

T1 sequence (P35968 20-1356): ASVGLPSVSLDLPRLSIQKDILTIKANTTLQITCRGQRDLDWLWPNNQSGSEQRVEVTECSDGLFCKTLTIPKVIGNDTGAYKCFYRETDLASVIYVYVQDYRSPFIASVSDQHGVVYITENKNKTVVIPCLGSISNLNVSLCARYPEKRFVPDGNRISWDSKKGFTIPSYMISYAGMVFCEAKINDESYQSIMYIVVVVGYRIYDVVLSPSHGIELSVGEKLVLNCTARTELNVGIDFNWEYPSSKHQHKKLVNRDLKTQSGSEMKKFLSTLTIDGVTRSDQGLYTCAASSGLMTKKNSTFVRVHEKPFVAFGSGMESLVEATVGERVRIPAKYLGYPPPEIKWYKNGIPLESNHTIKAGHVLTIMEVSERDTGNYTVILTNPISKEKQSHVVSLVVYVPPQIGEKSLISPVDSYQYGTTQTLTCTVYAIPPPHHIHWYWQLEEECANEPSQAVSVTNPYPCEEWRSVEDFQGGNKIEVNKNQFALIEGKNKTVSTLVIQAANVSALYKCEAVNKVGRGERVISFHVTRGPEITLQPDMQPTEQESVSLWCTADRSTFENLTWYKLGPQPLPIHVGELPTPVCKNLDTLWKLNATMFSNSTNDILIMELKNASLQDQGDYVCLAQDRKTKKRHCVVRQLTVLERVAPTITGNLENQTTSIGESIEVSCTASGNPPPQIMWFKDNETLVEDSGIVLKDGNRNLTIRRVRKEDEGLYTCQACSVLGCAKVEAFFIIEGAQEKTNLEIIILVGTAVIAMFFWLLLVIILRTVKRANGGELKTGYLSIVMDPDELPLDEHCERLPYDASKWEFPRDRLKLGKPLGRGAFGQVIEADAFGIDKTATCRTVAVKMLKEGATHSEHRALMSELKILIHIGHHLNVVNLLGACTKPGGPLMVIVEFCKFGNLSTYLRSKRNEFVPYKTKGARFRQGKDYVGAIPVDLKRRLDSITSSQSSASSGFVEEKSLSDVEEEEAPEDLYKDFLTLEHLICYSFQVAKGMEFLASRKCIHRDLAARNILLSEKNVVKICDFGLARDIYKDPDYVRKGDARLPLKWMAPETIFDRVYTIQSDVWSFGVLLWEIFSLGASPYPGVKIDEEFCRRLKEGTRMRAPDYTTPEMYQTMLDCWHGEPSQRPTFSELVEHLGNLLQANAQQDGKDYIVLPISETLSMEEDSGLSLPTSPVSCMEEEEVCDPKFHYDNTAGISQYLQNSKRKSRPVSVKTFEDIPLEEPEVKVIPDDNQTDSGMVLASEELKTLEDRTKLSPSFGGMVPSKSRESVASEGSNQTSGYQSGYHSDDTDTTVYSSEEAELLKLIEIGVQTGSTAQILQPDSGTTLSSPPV
T1 sequence (P09382 2-135 partner limits assumed): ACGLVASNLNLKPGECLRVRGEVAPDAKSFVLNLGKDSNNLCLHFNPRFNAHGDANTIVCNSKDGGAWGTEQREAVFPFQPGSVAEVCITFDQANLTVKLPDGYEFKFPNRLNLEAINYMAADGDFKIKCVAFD
T3 sequence (P09382 whole entry): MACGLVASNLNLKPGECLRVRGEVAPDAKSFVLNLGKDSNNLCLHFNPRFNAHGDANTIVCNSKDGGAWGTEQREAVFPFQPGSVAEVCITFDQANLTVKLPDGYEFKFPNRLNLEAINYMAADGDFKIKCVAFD
T2 sequence (P09382 2-135 limits assumed): as the sequence (P09382 2-135 partner limits assumed) above

For rGal1: recombinant human galectin-1, the EC invasion result with HUVEC is recorded as “elicited”. For the same molecule, the “association with VEGFR2” value with VEGFR2 is “associated specifically”.

B1: anti-Gal1 monoclonal antibody 8F4F8G7 (antibody, V domains shown)
VH: EVQLQQSVAEFVRPGASVRLSCTASGFNIKNTYIHWVRQRPEQGLEWIGKIDPANGNTKYVPEFQGKATMTADTSSNTVYLHLSSLTSEDTAIYYCVDGYYGWYFAVWGTGTTVTVSS
VL: QAVVTQESALTTSPGETVTLTCRSSTGAVTTSNYANWVQEKPDHLFTGLIGATNNRAPGVPARFSGSLIGDKAVLTITGAQTEDEAIYFCALWYRNHFIFGSGTKVTVL
notes: Murine hybridoma mAb (deposit PTA-10535), lambda light chain; also called 14-19 8F4-F8-G7; clone 8F4.8F.67
Consider B1, for which, in the assay with human galectin-1 (Gal1), the binding result is “binds”. Also, the “reactivity with endogenous Gal1” value with endogenous Gal1 is “specifically detected”.
